System: T1, NC(=O)C1=CN([C@@H]2O[C@H](COP(=O)(O)OP(=O)(O)OC[C@H]3O[C@@H](n4cnc5c(N)ncnc54)[C@H](O)[C@@H]3O)[C@@H](O)[C@H]2O)C=CC1
T1 construct: Mo form
Test: purified protein
Type: biochemical, Clostridium carboxidivorans
Settings: 100 mM sodium bicarbonate, 50 mM Bis-Tris pH 6.8, 30 °C, oxic, Mo-loaded enzyme, part of preparation may be inactive

Substance: ccFDH (Mo-ccFDH) (Clostridium carboxidivorans P7; U139C)
- Km: 60 ± 7 µM
- Vmax: 5.83 µmol/min
- kcat: 0.02 ± 0.0008 s⁻¹
- kcat/Km: 310 ± 84 M⁻¹ s⁻¹

From article PMC11770034, “Characterization of the oxygen-tolerant formate dehydrogenase from Clostridium carboxidivorans” (Frontiers in Microbiology, 2025)
